In paper PMC5887309 one finds Kd data, which are given here for one molecule.

The data set concerns the target DNMT3AC R882H (human, UniProt Q9Y6K1 612-912, R882H). The data set is described as follows: fluorescence anisotropy. For orientation: Polarisation of emitted light reports the rotation of a fluorescent probe.

The term Kd denotes a measure of binding affinity in units of concentration.

Chain of DNMT3AC R882H (Q9Y6K1 612-912 R882H): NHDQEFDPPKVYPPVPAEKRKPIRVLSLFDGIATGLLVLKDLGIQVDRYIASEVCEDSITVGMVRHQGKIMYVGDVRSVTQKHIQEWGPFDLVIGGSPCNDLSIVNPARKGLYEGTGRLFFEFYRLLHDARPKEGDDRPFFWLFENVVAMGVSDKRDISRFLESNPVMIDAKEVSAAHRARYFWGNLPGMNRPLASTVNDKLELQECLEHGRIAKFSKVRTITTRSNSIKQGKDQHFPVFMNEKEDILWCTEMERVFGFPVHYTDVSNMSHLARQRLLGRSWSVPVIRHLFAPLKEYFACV

B1: Cy5-labeled 29mer with two CpG sites (dsDNA)
DNA 1: ACTTGCAACGGTCCTAACCGTCACCTCTT
DNA 2: AAGAGGTGACGGTTAGGACCGTTGCAAGT
With B1, the Kd amounted to 209 ± 19 nM.
